Experimental findings from article doi:10.1101/489906 (bioRxiv, 2018) are described below.

For assay [1], the target named is Saga-2006 GII.4 VLPs (Norovirus Hu/GII.4/Saga4/2006/JP …, UniProt B5BTR7, strain). As to the kind of experiment: ELISA. (In general: In an ELISA, binding on a coated surface is turned into a signal by an enzyme label.)
The target of assay [2] is CHDC-1974 GII.4 VLPs (Norovirus Hu/GII.4/CHDC2094/1974/US …, UniProt D0QJ68, strain). The assay is described as follows: ELISA.
In assay [3] the target is T1, NSW-2012 GII.4 P domain (Norovirus …, strain).
T1 chain: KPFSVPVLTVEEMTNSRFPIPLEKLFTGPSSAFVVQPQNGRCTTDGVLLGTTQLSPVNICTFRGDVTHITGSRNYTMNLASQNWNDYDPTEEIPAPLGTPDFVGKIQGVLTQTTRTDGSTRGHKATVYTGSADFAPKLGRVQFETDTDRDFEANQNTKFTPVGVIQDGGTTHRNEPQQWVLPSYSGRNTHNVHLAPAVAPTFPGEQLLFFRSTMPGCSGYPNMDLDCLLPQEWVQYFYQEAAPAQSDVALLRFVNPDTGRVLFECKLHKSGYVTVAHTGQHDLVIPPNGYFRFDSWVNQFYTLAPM
As to the kind of experiment: ITC. For orientation: Isothermal titration calorimetry measures the heat released or taken up as one component is titrated into another.

What is called Kd is the concentration at which binding is half-saturated. A low value points to a tighter complex. For orientation: stoichiometry N means a count of units in the complex or per binding partner.

B1: 10E9 MAb (IgG) (antibody, V domains shown)
VH: QVQLQQSGAELMKPGASVKISCTATGYTFITYWIQWVKQRPGHGLEWIGETLPGSGSTNYNEKFKGKATFTADTSSNTAYMQLSSLTSEDSAIYYCARIGRSNDYWGQGTTLTVSS
VL: QIVLTQSPTIMSASPGEKVTMTCSASSSVDYMHWYQQKSGTSPKRWIYDTYKLASGVPARFSGSGSGTSYSLTINSMEAEDAATYYCQQWSSNPLTFGAGTKLELK
With B1, the binding result in assay [1] is “binds”. Besides, the binding result in assay [2] is “no binding”. Also, in assay [3], the dissociation constant (Kd) turned out to be 59 nM, the dH was -4300 ± 11 cal/mol and the “stoichiometry N” value worked out at 0.98.
